According to patent US20250145690A1 (US Dept. of Health and Human Services, published 2025):

Experiments:
Assay in all cases: bead flow cytometry, AUC minus CD4
[1] = molecular target: T1, HCoV-229E spike protein (Sino Biological 40605-V08B) (HCoV-229E, UniProt P15423 16-1115)
T1 sequence: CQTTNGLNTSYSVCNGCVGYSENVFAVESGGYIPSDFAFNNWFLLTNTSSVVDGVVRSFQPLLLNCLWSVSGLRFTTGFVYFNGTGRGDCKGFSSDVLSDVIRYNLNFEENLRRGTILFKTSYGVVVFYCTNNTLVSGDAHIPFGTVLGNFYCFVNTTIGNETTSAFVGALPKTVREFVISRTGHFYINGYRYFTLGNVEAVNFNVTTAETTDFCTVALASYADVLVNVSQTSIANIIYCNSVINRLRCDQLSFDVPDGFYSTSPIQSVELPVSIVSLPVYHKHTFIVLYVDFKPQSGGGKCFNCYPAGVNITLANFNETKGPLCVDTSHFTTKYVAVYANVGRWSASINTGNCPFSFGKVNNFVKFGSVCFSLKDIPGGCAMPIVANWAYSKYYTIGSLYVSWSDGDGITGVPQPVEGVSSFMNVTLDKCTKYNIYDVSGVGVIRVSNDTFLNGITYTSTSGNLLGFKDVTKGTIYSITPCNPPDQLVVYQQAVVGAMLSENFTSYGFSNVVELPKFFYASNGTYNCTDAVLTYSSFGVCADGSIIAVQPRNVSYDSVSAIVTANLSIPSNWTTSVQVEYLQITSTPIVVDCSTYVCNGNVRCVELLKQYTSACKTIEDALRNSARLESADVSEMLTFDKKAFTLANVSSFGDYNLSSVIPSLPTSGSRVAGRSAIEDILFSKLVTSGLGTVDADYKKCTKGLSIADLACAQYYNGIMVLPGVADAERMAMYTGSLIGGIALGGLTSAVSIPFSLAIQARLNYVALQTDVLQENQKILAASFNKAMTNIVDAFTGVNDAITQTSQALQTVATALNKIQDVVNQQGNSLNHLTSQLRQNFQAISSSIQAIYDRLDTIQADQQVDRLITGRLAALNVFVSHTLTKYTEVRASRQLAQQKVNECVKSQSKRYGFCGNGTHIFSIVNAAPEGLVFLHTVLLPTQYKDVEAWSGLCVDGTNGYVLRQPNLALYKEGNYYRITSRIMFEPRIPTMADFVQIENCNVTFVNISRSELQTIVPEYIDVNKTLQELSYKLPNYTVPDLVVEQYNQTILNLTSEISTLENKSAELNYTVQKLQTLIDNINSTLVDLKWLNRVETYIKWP

[2] = molecular target: T2, HCoV-NL63 spike protein (Sino Biological 40604-V08B) (HCoV-NL63, UniProt Q6Q1S2 19-1296)
T2 sequence: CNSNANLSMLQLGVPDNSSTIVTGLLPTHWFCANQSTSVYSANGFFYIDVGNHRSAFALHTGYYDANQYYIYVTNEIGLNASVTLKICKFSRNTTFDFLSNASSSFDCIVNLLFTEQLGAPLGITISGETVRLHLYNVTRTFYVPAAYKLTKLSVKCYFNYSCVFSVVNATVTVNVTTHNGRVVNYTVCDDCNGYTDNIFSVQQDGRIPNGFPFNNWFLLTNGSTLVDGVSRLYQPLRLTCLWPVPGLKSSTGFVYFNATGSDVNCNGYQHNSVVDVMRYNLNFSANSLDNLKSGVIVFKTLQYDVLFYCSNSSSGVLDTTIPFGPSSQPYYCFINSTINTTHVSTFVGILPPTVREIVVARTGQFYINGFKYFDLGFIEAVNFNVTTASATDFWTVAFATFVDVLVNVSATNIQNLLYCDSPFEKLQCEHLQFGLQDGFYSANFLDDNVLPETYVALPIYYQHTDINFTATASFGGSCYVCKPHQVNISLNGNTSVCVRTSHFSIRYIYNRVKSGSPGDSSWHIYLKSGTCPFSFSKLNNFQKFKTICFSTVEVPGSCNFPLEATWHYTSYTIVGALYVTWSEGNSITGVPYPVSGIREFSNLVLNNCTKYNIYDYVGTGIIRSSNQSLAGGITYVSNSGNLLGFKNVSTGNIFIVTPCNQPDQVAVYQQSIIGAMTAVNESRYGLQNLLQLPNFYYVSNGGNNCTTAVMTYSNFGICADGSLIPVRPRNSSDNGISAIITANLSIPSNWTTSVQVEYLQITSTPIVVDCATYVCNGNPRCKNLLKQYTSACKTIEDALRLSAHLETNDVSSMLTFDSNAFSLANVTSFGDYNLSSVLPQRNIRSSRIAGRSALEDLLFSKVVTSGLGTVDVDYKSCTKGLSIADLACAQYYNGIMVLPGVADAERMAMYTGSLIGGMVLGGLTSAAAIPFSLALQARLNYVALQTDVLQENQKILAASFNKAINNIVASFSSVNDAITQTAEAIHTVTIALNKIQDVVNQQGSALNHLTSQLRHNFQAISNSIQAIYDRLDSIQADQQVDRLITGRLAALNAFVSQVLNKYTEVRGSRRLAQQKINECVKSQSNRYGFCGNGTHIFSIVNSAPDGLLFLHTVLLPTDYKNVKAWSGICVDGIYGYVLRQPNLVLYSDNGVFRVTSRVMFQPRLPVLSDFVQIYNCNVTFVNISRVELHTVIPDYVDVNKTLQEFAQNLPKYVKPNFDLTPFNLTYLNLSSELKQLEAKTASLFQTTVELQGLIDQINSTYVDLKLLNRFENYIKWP

[3] = molecular target: SARS-CoV-2 spike N-terminal domain (NTD), recombinant (SARS-CoV-2, UniProt P0DTC2 14-305)
[4] = molecular target: SARS-CoV-2 spike receptor binding domain (RBD), recombinant (SARS-CoV-2, UniProt P0DTC2 319-541)

Measured: binding result

B1: COV49-03 (antibody, V domains shown)
VH: DVQLLESGGGLVQPGGSRRLSCAASGFTFSNYAMSWVRQAPGKGLEWVSAISGGGATTYYADSVQGRFTMSRDNSNNTLYLQMSSLRAEDTAVYYCTKGAFYDILSSIIVEGDYWGQGTLVTVSS
VL: DVVLTQSPLSLPITLGQPASISCRSSQSLVFSDGNTYLNWFQQRPGQSPRRLIYKVSNRDSGVPDRFSGSGSGTDFTLKISRVEAEDVGVYYCMQGTHWLSITFGQGTRLEIK
no binding (tested: 200 µg/mL): all assays above

B2: COV49-05 (antibody, V domains shown)
VH: EVQLLESGGGLAQPGGSLRLSCVASGFSFNDYAMTWVRQAPGKGLEWVSAVSSGGQTTYSTDSVKGRFTISRDNSKNMLYLQMNSLRAEDTAVYYCVKGAFYNILSSIIVEGDYWGQGTLVTVSS
VL: GVVLTQSPLSLPVTLGQPASISCRSSQSLVFSDGNTYLNWFQQRPGQSPRRLIYQVSNRDPGVPDRFSGSGSGTDFTLKISRVEAEDVGVYYCMQGTHWLSITFGQGTRLEIK
no binding (tested: 200 µg/mL): all assays above

B3: COV49-04 (antibody, V domains shown)
VH: EVQLLESGGGLVQPGGSLRLSCATSGFTFSSYAMTWVRQAPGKGLEWVSAISGGGATTYSTDSVKGRFTTSRDNSKNTLYLQMNNLRAEDTALYYCAKGAFYNILSSIIVEGDYWGQGTLVTVSS
VL: DVVMTQSPLSLSVTLGQPASISCRSSQSLVFSDGDTYLNWFQQRPGQSPRRLIYRVSNRDSGVPDRFSGSGSGTDFTLKISRVEAEDVGVYYCMQGTHWLSITFGQGTRLDIK
no binding (tested: 200 µg/mL): all assays above

B4: COV49-28 (antibody, V domains shown)
VH: GVQLLESGGGLAQPGGSLKLSCVASGFSFNDYAMTWVRRPPGKGLEWVSAVSSGGQTSYSTDSVKGRFTISRDNSKNTLYLQMSSLRAEDTAIYYCVKGAFYNILSSIIVEGDYWGQGTLVTVSS
VL: GVVLTQSPLSLPVTLGQPASISCRSSQSLVFSDGKTYLNWFQQRPGQSPRRLIYQVSNRDPGVPDRFSGSGSGTDFTLKISRVEAEDVGVYYCMQGTHWLSITFGQGTRLEIK
no binding (tested: 200 µg/mL): all assays above

B5: COV49-23 (antibody, V domains shown)
VH: EVQLLESGGGLAQPGGSLRISCVASGFSFNDYAMAWVRRAPGKGLEWVSAVSGGGQTTYSTDSVKGRFTTSRDNSKNTLYLQMNGLRAEDTAVYYCVKGAFYNILSSIIVEGDYWGQGALVTVSS
VL: GVVLTQSPLSLPVTLGQPASISCRSSQSLVFSDGNTYLNWFQQRPGQSPRRLIYQVSNRDPGVPDRFSGSGSGTDFTLKISRVEAEDVGVYYCMQGTHWLSITFGQGTRLEIK
no binding (tested: 200 µg/mL): all assays above

B6: COV49-51 (antibody, V domains shown)
VH: QVQLVQSGAEAKKPGASVKVSCKASGYSFTSYHMHWVRQAPGQGLEWMGIINPNGGTTTYAPKFQGRVTMTSDTSTSTVYMELTSLRSEDTAVYYCSTVVGALWGQGTLVIVSS
VL: IVLTQSPGTLSLSPGERATLSCRASQSVRSNNYLAWYQQKPGQAPRLLIYGASTRATGIPDRFSGSGSGTDFTLTISRLEPEDFAVYYCQQYGSSPLTFGGGTRVEIK
no binding (tested: 200 µg/mL): all assays above

B7: COV44-54 (antibody, V domains shown)
VH: QVQLVQSGAEVKKPGASVRVSCKTSGYTFTNYYMTWVRQAPGQGLQWVGLISPSAGYTAYAQMFQGRVTMTSDTSTSTVYMQLSSLRSEDTAIYYCTRVAVAGPNDYWGQGTLVTVSS
VL: EIVLTQSPGTLSLSPGERATLSCRASQSISGSYLAWYQQKPGQAPRLVIYAASSRATGIPDRFSGSGSGTDFILTISRLEAEDFAVYFCQHYRSSPPLWTFGQGTKVEIR
no binding (tested: 200 µg/mL): all assays above

B8: COV44-56 (antibody, V domains shown)
VH: QVLLVQSGAEVKKPGASVMVSCKASGYILNNYYMHWVRQAPGHGLEWMGIINPSGDGTRYAQKFQGRVTMTRDSSTTSIHMELRRVTSEDTAVYYCARGGSQSAFDMWGQGTVVLVSS
VL: DIVMTQSPRSLPVTPGESASISCRSSQSLLQKNGYNYLDWYVQKPGQSPQLLIYLGSYRASGVPDRISGSGSGTDFTLKINRVEAEDVGVYYCLQAQQAPPLYTFGQGTKLQIE
no binding (tested: 200 µg/mL): all assays above

B9: COV93-03 (antibody, V domains shown)
VH: QLQLVQSGAEVKKPGASVKLSCKASGNTFTSHYIHWVRQAPGQGPEWMGIINPSGSGTRYAQKFQGRVTMTRDTSTSTVYMELVSLRFEDTAVYYCAGDYYLDYWGQGTLVTVSS
VL: EFVLTQSPGTLSLSPGERATLSCRASQSVTSNYLAWYQQKPGQAPRLLIFGASSRATGIPDRFSGSGSGTDFTLTISRLEPEDFAVYYCQQYGSSPPMYTFGPGTKVEIK
no binding (tested: 200 µg/mL): all assays above
